In IntAct's records for PubMed 19345194:

B1: Homer protein homolog 1 (Rattus norvegicus (Rat)), Q9Z214-2 (parent)
chain: MGEQPIFSTRAHVFQIDPNTKKNWVPTSKHAVTVSYFYDSTRNVYRIISLDGSKAIINSTITPNMTFTKTSQKFGQWADSRANTVYGLGFSSEHHLSKFAEKFQEFKEAARLAKEKSQEKMELTSTPSQESAGGDLQSPLTPESINGTDDERTPDVTQNSEPRAEPAQNALPFSHSSAISKHWEAELATLKGNNAKLTAALLESTANVKQWKQQLAAYQEEAERLHKRVTELECVSSQANAVHSHKTELSQTVQELEETLKVKEEEIERLKQEIDNARELQEQRDSLTQKLQEVEIRNKDLEGQLSELEQRLEKSQSEQDAFRSNLKTLLEILDGKIFELTELRDNLAKLLECS

Variants of: B1
Settings: with shan1_rat Shank1, Q9WV48
Chain of shan1_rat Shank1, Q9WV48 (Q9WV48 whole entry): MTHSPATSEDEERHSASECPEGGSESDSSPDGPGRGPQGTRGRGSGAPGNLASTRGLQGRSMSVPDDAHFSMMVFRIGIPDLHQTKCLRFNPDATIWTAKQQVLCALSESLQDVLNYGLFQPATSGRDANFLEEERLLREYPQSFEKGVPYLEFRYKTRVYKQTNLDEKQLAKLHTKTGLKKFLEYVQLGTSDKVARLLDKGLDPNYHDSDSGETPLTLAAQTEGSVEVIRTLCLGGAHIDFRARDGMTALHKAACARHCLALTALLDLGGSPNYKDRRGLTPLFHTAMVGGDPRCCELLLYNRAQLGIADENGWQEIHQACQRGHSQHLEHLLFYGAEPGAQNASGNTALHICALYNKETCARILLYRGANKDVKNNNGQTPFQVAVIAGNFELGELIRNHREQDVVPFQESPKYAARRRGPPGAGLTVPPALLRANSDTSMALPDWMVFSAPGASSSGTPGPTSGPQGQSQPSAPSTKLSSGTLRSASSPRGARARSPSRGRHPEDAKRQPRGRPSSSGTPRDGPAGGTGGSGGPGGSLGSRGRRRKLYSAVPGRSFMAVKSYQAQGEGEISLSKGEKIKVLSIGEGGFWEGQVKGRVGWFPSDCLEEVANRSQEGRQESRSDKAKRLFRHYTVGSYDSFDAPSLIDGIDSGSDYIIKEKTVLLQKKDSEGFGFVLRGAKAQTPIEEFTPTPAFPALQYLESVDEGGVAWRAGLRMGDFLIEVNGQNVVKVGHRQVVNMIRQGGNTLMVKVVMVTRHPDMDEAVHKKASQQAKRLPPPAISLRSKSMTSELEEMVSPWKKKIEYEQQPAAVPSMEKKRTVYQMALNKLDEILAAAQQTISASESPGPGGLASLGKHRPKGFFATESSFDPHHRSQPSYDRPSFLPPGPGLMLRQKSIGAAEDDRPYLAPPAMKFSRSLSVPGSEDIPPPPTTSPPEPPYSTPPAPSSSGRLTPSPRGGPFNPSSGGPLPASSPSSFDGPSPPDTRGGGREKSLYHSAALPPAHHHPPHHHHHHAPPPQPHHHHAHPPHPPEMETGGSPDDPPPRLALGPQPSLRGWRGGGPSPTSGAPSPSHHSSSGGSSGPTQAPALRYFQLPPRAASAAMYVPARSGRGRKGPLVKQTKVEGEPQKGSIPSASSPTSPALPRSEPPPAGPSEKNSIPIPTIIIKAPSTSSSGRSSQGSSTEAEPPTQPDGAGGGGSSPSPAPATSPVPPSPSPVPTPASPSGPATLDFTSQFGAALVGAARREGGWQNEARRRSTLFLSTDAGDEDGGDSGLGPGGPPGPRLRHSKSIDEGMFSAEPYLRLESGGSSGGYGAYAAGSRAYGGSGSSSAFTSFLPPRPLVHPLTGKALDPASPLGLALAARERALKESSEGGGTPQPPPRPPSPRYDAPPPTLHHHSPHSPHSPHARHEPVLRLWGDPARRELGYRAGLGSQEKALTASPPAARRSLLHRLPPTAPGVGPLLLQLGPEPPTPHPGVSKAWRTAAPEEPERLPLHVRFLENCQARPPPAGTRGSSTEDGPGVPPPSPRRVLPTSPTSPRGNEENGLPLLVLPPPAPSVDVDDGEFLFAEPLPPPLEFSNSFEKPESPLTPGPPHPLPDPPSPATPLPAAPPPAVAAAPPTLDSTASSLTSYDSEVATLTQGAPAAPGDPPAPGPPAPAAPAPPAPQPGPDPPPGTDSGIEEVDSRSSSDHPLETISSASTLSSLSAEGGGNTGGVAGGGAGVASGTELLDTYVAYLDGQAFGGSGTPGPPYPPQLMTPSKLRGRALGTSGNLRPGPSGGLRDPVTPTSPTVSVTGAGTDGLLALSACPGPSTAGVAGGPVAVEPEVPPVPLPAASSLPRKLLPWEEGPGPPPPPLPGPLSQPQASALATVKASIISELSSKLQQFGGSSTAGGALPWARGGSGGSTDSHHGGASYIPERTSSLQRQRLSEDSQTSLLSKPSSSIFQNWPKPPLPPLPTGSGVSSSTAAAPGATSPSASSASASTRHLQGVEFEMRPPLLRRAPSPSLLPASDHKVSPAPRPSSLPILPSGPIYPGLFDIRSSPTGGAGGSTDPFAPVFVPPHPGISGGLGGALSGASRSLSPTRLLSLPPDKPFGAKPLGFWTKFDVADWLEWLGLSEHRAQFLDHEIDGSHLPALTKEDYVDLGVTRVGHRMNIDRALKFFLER

How did the “effect of a mutation on the interaction” value turn out when MGEQPIFSTRAHVFQIDPNTKKNAVPTSKHAVTVSYFYDSTRNVYRIISLDGSKAIINSTITPNMTFTKTSQKFGQWADSRANTVYGLGFSSEHHLSKFAEKFQEFKEAARLAKEKSQEKMELTSTPSQESAGGDLQSPLTPESINGTDDERTPDVTQNSEPRAEPAQNALPFSHSSAISKHWEAELATLKGNNAKLTAALLESTANVKQWKQQLAAYQEEAERLHKRVTELECVSSQANAVHSHKTELSQTVQELEETLKVKEEEIERLKQEIDNARELQEQRDSLTQKLQEVEIRNKDLEGQLSELEQRLEKSQSEQDAFRSNLKTLLEILDGKIFELTELRDNLAKLLECS [W24A] was run?
The value was “decreasing interaction”.
